Target: recombinant C-terminal StrepII-tagged SbtB from Synechocystis sp. PCC 6803 (ScSbtB), wildtype (Synechocystis sp. PCC 6803), P73954
Test: crystal structure
Conditions: remark: other sources report otherwise

stoichiometry N: 3
B1: recombinant C-terminal StrepII-tagged SbtB from Synechocystis sp. PCC 6803 (ScSbtB), wildtype, P73954 1-110 (natural protein)
chain: MAKPANKLVIVTEKILLKKIAKIIDESGAKGYTVMNTGGKGSRNVRSSGQPNTSDIEANIKFEILTETREMAEEIADRVAVKYFNDYAGIIYICSAEVLYGHTFCGPEGC

Reference: publication doi:10.1101/2022.05.18.492403
